Values belong to the binder of their own block, whether it stands above or below them.
Tests used:
[1] = target: T1, rHuman CD44/Fc Chimera, CF (R&D Systems Cat#3660-CD) (human, UniProt P16070 21-220); assay: ECL (MSD Multi-Spot) binding, antigen spotted on plate; Fab 500 nM
T1 construct: Bought Fc chimera; Fc part of the bought chimera not given

[2] = target: T2, rHuman IGF-1 sR, CF (R&D Systems Cat#391-GR) (human, UniProt P08069 31-932); assay: as above
T2 construct: Bought soluble receptor; also called insulin-like growth factor-1 soluble receptor; IGF-R1

[3] = target: T3, rHuman ErbB2/Fc Chimera, CF (R&D Systems Cat#1129-ER) (human, UniProt P04626 23-652); assay: as above
T3 construct: Bought Fc chimera; also called human epidermal growth factor 2 receptor; HER2/neu; Fc part of the bought chimera not given

[4] = target: T4, rHuman EGF R/Fc Chimera, CF (R&D Systems Cat#344-ER) (human, UniProt P00533 25-645); assay: as above
T4 construct: Bought Fc chimera; also called epidermal growth factor receptor; Fc part of the bought chimera not given

[5] = target: T5, rHuman HGF R/c-MET/Fc Chimera, CF (R&D Systems Cat#358-MT/CF) (human, UniProt P08581 25-932); assay: as above
T5 construct: Bought Fc chimera; also called HGF R/Fc; hepatocyte growth factor receptor; Fc part of the bought chimera not given

[6] = target: T6, rHuman Erythropoietin R/Fc Chimera, CF (R&D Systems Cat#963-ER) (human, UniProt P19235 25-250); assay: ECL (MSD Multi-Spot) binding assay, antigen spotted on plate; Fab 480 nM; blank spot 362
T6 construct: Bought Fc chimera; also called EPO R/Fc; Epo R; Fc part of the bought chimera not given
T6 sequence: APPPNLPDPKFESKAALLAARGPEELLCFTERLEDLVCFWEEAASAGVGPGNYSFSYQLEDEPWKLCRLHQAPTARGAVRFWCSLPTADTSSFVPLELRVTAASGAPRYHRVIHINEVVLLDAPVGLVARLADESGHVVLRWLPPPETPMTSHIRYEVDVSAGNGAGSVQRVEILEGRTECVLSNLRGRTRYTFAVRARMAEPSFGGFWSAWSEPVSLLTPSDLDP

[7] = target: T7, Recombinant Human DLL4 (R&D Systems Cat#1506-D4/CF) (human, UniProt Q9NR61 27-524); assay: as above
T7 construct: Bought recombinant protein; also called delta-like protein 4; rHuman DLL4

[8] = target: T8, rHuman Notch-1/Fc Chimera, CF (R&D Systems Cat#3647-TK) (human, UniProt P46531 19-526); assay: as above
T8 construct: Bought Fc chimera; Fc part of the bought chimera not given

[9] = target: T9, rHuman CD44/Fc Chimera, CF (R&D Systems Cat#3660-CD) (human, UniProt P16070 21-220); assay: as above
T9 construct: Bought Fc chimera; Fc part of the bought chimera not given

[10] = target: T10, rHuman P-Cadherin/Fc Chimera, CF (R&D Systems Cat#861-PC) (human, UniProt P22223 108-654); assay: as above
T10 construct: Bought Fc chimera; also called CDH3; Fc part of the bought chimera not given

[11] = target: T11, rHuman IGF-1 sR, (IGF-1 sR), CF (R&D Systems Cat#391-GR) (human, UniProt P08069 31-932); assay: MSD ECL multi-spot plate; Fab 8.1 nM; blank spot 435
T11 construct: also called insulin-like growth factor-1 soluble receptor; IGF-R1

[12] = target: T12, rHuman Erythropoietin R/Fc Chimera, CF (R&D Systems Cat#963-ER) (human, UniProt P19235 25-250); assay: as above
T12 construct: also called EPO R/Fc; Epo R; Fc part of the bought chimera not given
T12 sequence: T6 sequence

[13] = target: T13, Recombinant Human DLL4 (R&D Systems Cat#1506-D4/CF) (human, UniProt Q9NR61 27-524); assay: as above
T13 construct: also called delta-like protein 4

[14] = target: T14, rHuman ErbB2/Fc Chimera, CF (R&D Systems Cat#1129-ER) (human, UniProt P04626 23-652); assay: as above
T14 construct: also called HER2/neu; human epidermal growth factor 2 receptor; Fc part of the bought chimera not given

[15] = target: T15, rHuman EGF R/Fc Chimera, CF (R&D Systems Cat#344-ER) (human, UniProt P00533 25-645); assay: as above
T15 construct: also called epidermal growth factor receptor; Fc part of the bought chimera not given

[16] = target: T16, rHuman HGF R/c-MET/Fc Chimera, CF (R&D Systems Cat#358-MT/CF) (human, UniProt P08581 25-932); assay: as above
T16 construct: also called HGF R/Fc; hepatocyte growth factor receptor; Fc part of the bought chimera not given

[17] = target: T17, rHuman Notch-1/Fc Chimera, CF (R&D Systems Cat#3647-TK) (human, UniProt P46531 19-526); assay: as above
T17 construct: Fc part of the bought chimera not given

[18] = target: T18, rHuman CD44/Fc Chimera, CF (R&D Systems Cat#3660-CD) (human, UniProt P16070 21-220); assay: as above
T18 construct: Fc part of the bought chimera not given
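Also: blank spot per well as comparator with Hit at signal to blank ratio of 4 or more.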

ECL signal [1]: 664
ECL signal [2]: 592
ECL signal [3]: 713
ECL signal [4]: 898
ECL signal [5]: 523
B1: Fab VH1-46_IGHD6-6*01_IGHJ1*01_S102A_S103P_S104F_H111Y & L6_IGKJ1*01 (Fab, V domains shown)
VH: QVQLVQSGAEVKKPGASVKVSCKASGYTFTSYYMHWVRQAPGQGLEWMGIINPSGGSTSYAQKFQGRVTMTRDTSTSTVYMELSSLRSEDTAVYYCAREEYAPFSAEYFQYWGQGTLVTVSS
VL: not shown
notes: Fab made in E. coli; The heavy chain also carries the CH1 with Flag and His tags of Plasmid A, and the light chain the kappa constant region of Plasmid C

ECL signal [6]: 621
ECL signal [7]: 1530
ECL signal [8]: 545
ECL signal [9]: 541
ECL signal [10]: 596
B2: Fab VH6-1_IGHD3-3*01_IGHJ4*01 & V4-3_IGLJ4*01 (Fab, V domains shown)
VH: QVQLQQSGPGLVKPSQTLSLTCAISGDSVSSNSAAWNWIRQSPSRGLEWLGRTYYRSKWYNDYAVSVKSRITINPDTSKNQFSLQLNSVTPEDTAVYYCAREYYDFWSGYYTDYFDYWGQGTLVTVSS
VL: QPVLTQPTSLSASPGASARLTCTLRSGINLGSYRIFWYQQKPESPPRYLLSYYSDSSKHQGSGVPSRFSGSKDASSNAGILVISGLQSEDEADYYCMIWHSSASFVFGGGTQLIIL
notes: Tested as a Fab made in E. coli; also called IGHV6-1*01

ECL signal [11]: 518 ECL signal
ECL signal [12]: 660 ECL signal
ECL signal [13]: 1550 ECL signal
ECL signal [14]: 557 ECL signal
ECL signal [15]: 560 ECL signal
ECL signal [16]: 551 ECL signal
ECL signal [17]: 612 ECL signal
ECL signal [18]: 528 ECL signal
B3: Fab VH1-8_IGHD2-2*01_IGHJ6*01 & L12_IGKJ1*01 (Fab, V domains shown)
VH: QVQLVQSGAEVKKPGASVKVSCKASGYTFTSYDINWVRQATGQGLEWMGWMNPNSGNTGYAQKFQGRVTMTRNTSISTAYMELSSLRSEDTAVYYCARGGYCSSTSCYADYYYYYGMDVWGQGTTVTVSS
VL: not shown
